Our source for the stoichiometry N and Kd values is paper PMC7588011, “Engineering Stem Cell Factor Ligands with Different c-Kit Agonistic Potencies” (Molecules, 2020).

For assay [1], the target named is SCFM, stem cell factor V49L F63L double mutant, soluble (UniProt P21583). Kind of assay: small angle X-ray scattering; purified SCFWT and SCFM at 3 or 5 mg/mL (193 or 322 µM), 25 °C; radius of gyration compared with that of the theoretical monomer and dimer from PDB 1SCF.
Assay [2] concerns the target T1, recombinant c-Kit (R&D Systems) (UniProt P10721 26-524).
T1 construct: c-Kit receptor tyrosine kinase, recombinant; No catalogue number printed; the discussion calls it 'recombinant soluble c-Kit'; also called surface-immobilized c-Kit; recombinant soluble c-Kit; source: bought: R&D Systems
Kind of assay: SPR; ProteOn XPR36; c-Kit amine-coupled to a GLC chip; SCF proteins flowed in PBST at 100 µL/min, 25 °C; KD from the equilibrium-binding phase, 1:1 Langmuir model; BSA channel subtracted. The following applies: both partners purified. Background: In SPR one partner is held on a chip, and binding of the other changes the refractive index at the surface.

Residue numbers refer to the chain shown, from its start. Numbers in names are those of the source.

T1 sequence (P10721 26-524): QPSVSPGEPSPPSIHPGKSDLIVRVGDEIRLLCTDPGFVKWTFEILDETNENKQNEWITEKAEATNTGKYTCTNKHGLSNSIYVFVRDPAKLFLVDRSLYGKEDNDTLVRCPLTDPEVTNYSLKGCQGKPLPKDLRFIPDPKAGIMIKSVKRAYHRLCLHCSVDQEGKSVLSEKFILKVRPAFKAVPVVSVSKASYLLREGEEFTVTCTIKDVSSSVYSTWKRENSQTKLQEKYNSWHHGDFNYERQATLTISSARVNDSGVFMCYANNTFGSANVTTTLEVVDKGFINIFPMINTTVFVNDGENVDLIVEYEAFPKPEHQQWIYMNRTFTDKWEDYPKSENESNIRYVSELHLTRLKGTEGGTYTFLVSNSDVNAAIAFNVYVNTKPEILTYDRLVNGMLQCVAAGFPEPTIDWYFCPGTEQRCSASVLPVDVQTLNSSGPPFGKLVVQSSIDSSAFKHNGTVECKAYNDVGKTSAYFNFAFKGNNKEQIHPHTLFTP

“SCFM, stem cell factor V49L F63L double mutant, soluble (from UniProt P21583 26-214) (ligand)”: the stoichiometry N (as a rule, a count of units in the complex or per binding partner) in assay [1] is 2.

B1: SCF_(M,K91E), soluble (ligand, UniProt P21583 26-214, looked up)
chain: EGICRNRVTNNVKDVTKLVANLPKDYMITLKYVPGMDVLPSHCWISEMLVQLSDSLTDLLDKLSNISEGLSNYSIIDKLVNIVDDLVECVEENSSKDLKKSFKSPEPRLFTPEEFFRIFNRSIDAFKDFVVASETSDCVVSSTLSPEKDSRVSVTKPFMLPPVAASSLRNDSSSSNRKAKNPPGDSSLH
notes: stem cell factor (SCF), SCFM (V49L, F63L) with K91E, selected from the first-generation yeast display library; source: purified in non-glycosylated form (production described in the Supplementary Materials)
Consider B1, for which, in assay [2], the Kd (in general, the equilibrium constant for the complex coming apart) is 88.9 nM.

B2: SCF_(M,K91E,L98R), soluble (ligand, UniProt P21583 26-214, looked up)
chain: B1 chain with L98R
notes: stem cell factor (SCF), SCFM (V49L, F63L) with K91E and L98R, selected from the second-generation yeast display library; also called SCF_(K91E,L98R); source: purified in non-glycosylated form (production described in the Supplementary Materials)
Take B2: the Kd in assay [2] was determined as 40.7 nM.

B3: SCF_(M,S64P,F126S,V131A,E134G,V139I), soluble (ligand, UniProt P21583 26-214, looked up)
chain: B1 chain with S64P, E91K, F126S, V131A, E134G, V139I
notes: stem cell factor (SCF), SCFM (V49L, F63L) with S64P, F126S, V131A, E134G and V139I, selected from the first-generation yeast display library; also called SCFM,N; source: purified in non-glycosylated form (production described in the Supplementary Materials)
With B3, in assay [2], the Kd was 74.4 nM.
